Data: paper PMC9637222 (Nature Communications, 2022)

Biological target: T1, InvF (tag-free, purified) (S. Typhimurium, UniProt P69343 1-216)
T1 sequence: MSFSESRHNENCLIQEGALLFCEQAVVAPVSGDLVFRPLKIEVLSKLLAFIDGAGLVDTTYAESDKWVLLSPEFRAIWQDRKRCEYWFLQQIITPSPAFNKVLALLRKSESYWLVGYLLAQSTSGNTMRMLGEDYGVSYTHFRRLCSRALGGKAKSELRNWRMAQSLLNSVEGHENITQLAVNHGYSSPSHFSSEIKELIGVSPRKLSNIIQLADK
Test: ITC
Settings: both partners purified

B1: SicA (tag-free, purified) (natural protein)
chain: MDYQNNVSEERVAEMIWDAVSEGATLKDVHGIPQDMMDGLYAHAYEFYNQGRLDEAETFFRFLCIYDFYNPDYTMGLAAVCQLKKQFQKACDLYAVAFTLLKNDYRPVFFTGQCQLLMRKAAKARQCFELVNERTEDESLRAKALVYLEALKTAETEQHSEQEKE
notes: also called wild-type SicA
B1: binds.
